Reference: the supplement of paper PMC10126150
± gives the standard deviation of the averaged measurements.

Test system: ATP
Assay: switch fluorescence ratio, 500 uM ATP over buffer (Cy3 cluster intensity, sum of 5 cycles each) (fold (ratio)); higher = stronger signal-on switching upon ATP binding; sequences stand for … in TCGTCGGCAGCGTCAGATGTGTATAAGAGACAGTTTTTTTTTTTTTTTTTTTTTTTTT…TC
Details: aptamer strand: ATP DNA aptamer (quencher-CACCTGGGGGAGTATTGCGGAGGAAGG + anchor), 100 nM annealed; ATP concentration: 500 uM
Summary of the method: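 Switching-strand clusters labelled with Cy3 on a modified Illumina MiSeq flow-cell were annealed to 100 nM quencher-labelled ATP aptamer, imaged in selection buffer, and re-imaged after 15 min with 500 uM ATP at 22 °C. This was done over five cycles with NaOH stripping and re-annealing in between. The fluorescence ratio is summed target-cycle over summed buffer-cycle Cy3 intensity per cluster, averaged per switch-domain sequence, excluding clusters outside 100-1000 RFU.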
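Further: ATP exposure 15 min at 22 °C before imaging.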

Row | Sequence | switch fluorescence ratio
1 | AAGTTTGTCT | 1.004 ± 0.0053
2 | AATTTTTCAT | 0.977 ± 0.028
3 | GCCGTGTAGA | 1.05 ± 0.021
4 | TTTCCAGGG | 1.17 ± 0.031
5 | TGTCAGGGGA | 1.018 ± 0.007
6 | GGATATTTGG | 0.992 ± 0.029
7 | GGGGGGAACA | 1.01 ± 0.029
8 | CGAGAGGGGG | 0.9723 ± 0.0065
9 | TCCGGGGCGG | 1.11 ± 0.06
10 | ACAGCTGAGC | 0.999 ± 0.0079
11 | TGCCCGCTGC | 1.27 ± 0.017
12 | AGTTCATTGG | 1.04 ± 0.059
13 | TGTTTGGTGG | 0.968 ± 0.026
14 | CAGTGGGGTA | 0.966 ± 0.012
15 | AGGGTTGGCA | 0.998 ± 0.029
16 | AAGCGTCTCA | 0.997 ± 0.011
17 | AGGAGGTGTC | 1.06 ± 0.11
18 | TTCTTAGAGT | 1.02 ± 0.016
19 | ATTTGAGGTT | 1.006 ± 0.005
20 | TTGGAGGGTT | 0.992 ± 0.017
21 | GTGTCATTTA | 0.99 ± 0.035
22 | GGTGTCGTTT | 1.02 ± 0.024
23 | GAAGGGGAAA | 1 ± 0.045

Row | Sequence | switch fluorescence ratio
24 | CAATACTATA | 1.11 ± 0.067
25 | ACGGGACAGC | 1.2 ± 0.064
26 | TTTTCCAGTT | 0.998 ± 0.029
27 | GCGATGGCTG | 0.957 ± 0.015
28 | GCCCGCCACA | 1.06 ± 0.041
29 | CTAGTTCTTA | 1.05 ± 0.065
30 | GGGTCAATGG | 1.04 ± 0.031
31 | CAGGAAATTG | 1.02 ± 0.052
32 | AATTCGTCGG | 1.02 ± 0.045
33 | TGGAAAGCCT | 1.05 ± 0.1
34 | TCCGTCCCCG | 1.35 ± 0.058
35 | TGATTTTTAT | 1.011 ± 0.0089
36 | CTATAGGTAA | 0.996 ± 0.019
37 | GTGCGCGGCC | 1.01 ± 0.051
38 | TGGGTACTTT | 0.994 ± 0.016
39 | ACTCATGTAA | 1.03 ± 0.015
40 | TTTTTTACTA | 1.023 ± 0.0015
41 | AAAAGAGGGT | 1.03 ± 0.048
42 | ACCTCTTGGG | 0.9405 ± 0.0011
43 | TTTTAATGAG | 0.9774 ± 0.00031
44 | ATGGCCGGGT | 1.01 ± 0.013
45 | GGGTCGCCTG | 0.992 ± 0.033
46 | TTAGGGGGTT | 1.04 ± 0.062

Row | Sequence | switch fluorescence ratio
47 | GTAGAGAGGG | 0.992 ± 0.053
48 | CGGGGCGTGT | 0.988 ± 0.046
49 | TGGGATGTTA | 0.9872 ± 0.0074
50 | GACCAGTAAG | 0.9819 ± 0.0091
51 | AAATTGTCGT | 0.977 ± 0.042
52 | ATGAGGCACG | 1.05 ± 0.068
53 | TATCTGGGTT | 1.06 ± 0.079
54 | TTTTTGGTCG | 0.993 ± 0.086
55 | TAAAAGACTG | 0.992 ± 0.094
56 | ACGCGGTTTT | 1.02 ± 0.027
57 | AGGGGCGTAG | 1 ± 0.025
58 | GTTTAAAGGG | 0.998 ± 0.013
59 | GTTTTCTTCA | 1.04 ± 0.018
60 | TTCGAAATT | 1.02 ± 0.035
61 | ATTGGCATGC | 0.996 ± 0.027
62 | TACTATGTGG | 1.013 ± 0.0014
63 | CGCATGTTTC | 1.2 ± 0.15
64 | TTTTATACCA | 1.04 ± 0.039
65 | TATAAGTCAC | 1.146 ± 0.011
66 | AAATGGTTTT | 1 ± 0.024
67 | AAAAGAATCG | 0.996 ± 0.049
68 | AAACGAAGGA | 1.09 ± 0.069
69 | CGTTGGTGGT | 0.99 ± 0.031

Row | Sequence | switch fluorescence ratio
70 | CGCTGACGGA | 1.01 ± 0.053
71 | ATGTGAGAGG | 0.991 ± 0.022
72 | AGGTTGAGAT | 1.04 ± 0.041
73 | TTAATGGTAT | 1.02 ± 0.021
74 | TGGGCTCGCC | 1 ± 0.025
75 | TTTGCTTTGT | 1.01 ± 0.023
76 | AGCGGGGGCT | 0.997 ± 0.045
77 | TGGAGGGATT | 1.02 ± 0.013
78 | TTGACGGTGG | 1.05 ± 0.086
79 | GCTGCCTAAA | 0.9809 ± 0.0019
80 | ACTTTCTTAC | 1.12 ± 0.017
81 | GGGCAGGGGG | 1.01 ± 0.04
82 | ATGAATTTGG | 0.973 ± 0.025
83 | GTTAACGTTT | 0.982 ± 0.036
84 | AGACTGTTAG | 0.976 ± 0.029
85 | TTGGTTCGCC | 1.003 ± 0.0097
86 | AATCGGGAGT | 1.013 ± 0.0094
87 | TATTTGCTTT | 1.02 ± 0.015
88 | TTCTAGGGAA | 0.977 ± 0.023
89 | GGAATGACGA | 0.989 ± 0.048
90 | GGTCCACCGT | 0.989 ± 0.014
91 | ATGGAGTTG | 0.994 ± 0.024
92 | GATGTAAGAA | 0.993 ± 0.028

Row | Sequence | switch fluorescence ratio
93 | AGTGGTGTGG | 0.993 ± 0.044
94 | TAATTTCTTG | 1.013 ± 0.0018
95 | TTTTTGAATC | 0.983 ± 0.017
96 | GGGTGTGCGC | 1.0134 ± 5.8e-05
97 | TGCGTGTGGT | 1.036 ± 0.0046
98 | ATGAGAGCTT | 0.982 ± 0.011
99 | CCCCAAGACG | 0.997 ± 0.011
100 | TTCTGAACGT | 1 ± 0.015
101 | ATAAACGACT | 1.06 ± 0.024
102 | ATTTTTAGTG | 1.008 ± 0.0068
103 | CACAATTGGG | 1.01 ± 0.035
104 | TAAGTTGACT | 1.06 ± 0.078
105 | TGAGTGAGTG | 0.9933 ± 0.0015
106 | CGGGGTGAGA | 0.9809 ± 0.0069
107 | TAGCCGATGG | 0.994 ± 0.027
108 | CCTGGGTTAG | 0.998 ± 0.017
109 | TTCAAGGTCA | 1.02 ± 0.028
110 | TCGAGTATAT | 0.981 ± 0.021
111 | AGAGGAAAGG | 1.022 ± 0.0041
112 | ACGCCGTGTG | 0.999 ± 0.022
113 | AGGCTGCAGT | 1.013 ± 0.007
114 | ACTCTTATCG | 1.02 ± 0.054
115 | CTCCAGAGGG | 2.47 ± 1.8

Row | Sequence | switch fluorescence ratio
116 | CATTTATAAG | 0.977 ± 0.013
117 | AAAGGAAGAA | 1.013 ± 0.0073
118 | GGCCCTGAGC | 0.9991 ± 0.0025
119 | ATAGCTTCAC | 1.15 ± 0.015
120 | TCCTGTTACA | 1.03 ± 0.017
121 | TTTAATTACT | 1.04 ± 0.037
122 | CGGATATAAG | 1.01 ± 0.013
123 | AGGATCGAGG | 1.02 ± 0.028
124 | TTGTGTGGCA | 1.02 ± 0.054
125 | TGTATAAGGT | 0.966 ± 0.023
126 | TCAGGGGCTG | 0.974 ± 0.043
127 | CGGCAGGGGA | 1.05 ± 0.051
128 | CTAGTCGCCG | 1.003 ± 0.0097
129 | TTTTAGGCCT | 1.045 ± 0.0027
130 | ATGGTCGGGA | 0.986 ± 0.026
131 | CGGTTTATGA | 0.968 ± 0.016
132 | TATAATTGCC | 0.991 ± 0.0076
133 | TGCATTTTGC | 1.08 ± 0.023
134 | GGGGGTGTTG | 1 ± 0.04
135 | GAGTACCGAA | 0.969 ± 0.031
136 | TAAGAAGATT | 0.986 ± 0.024
137 | GTGGATATAG | 0.99333 ± 0.00046
138 | AGCGAGGGGG | 1.03 ± 0.032

Row | Sequence | switch fluorescence ratio
139 | GTATTTTGCG | 1.12 ± 0.26
140 | TATAATCGA | 1.03 ± 0.067
141 | TATGCATTGT | 1.01 ± 0.017
142 | GTGAGGAGTA | 1.001 ± 0.0093
143 | ATCAAACGGG | 1.02 ± 0.029
144 | AACGTCTCGA | 1.01 ± 0.025
145 | TAGCGGAAAA | 1.018 ± 0.0026
146 | ATACGGGTTT | 1.024 ± 0.0097
147 | AATGGTTTGG | 0.985 ± 0.013
148 | TTGCGGGTTT | 1.29 ± 0.38
149 | TTAAGATGGG | 0.996 ± 0.025
150 | GTGTTAGATC | 0.98 ± 0.017
151 | TAGGGGGGGA | 1.01 ± 0.018
152 | TCTATCATGA | 0.988 ± 0.013
153 | TGGGACCGGG | 1 ± 0.059
154 | AACGAGAAGC | 0.9895 ± 0.004
155 | AGGTATTTG | 0.986 ± 0.013
156 | GAATATATGT | 1.04 ± 0.028
157 | TGAAACTTGA | 1.042 ± 0.0055
